Results published in US7407939 (CUREGENICS, dated 2008).
Where no end group is shown, it is not given here. Side-chain parts run from the residue outwards. [ ]: non-standard residue; d: D form. The star is where a group is joined. SO2‑IQ = 5-aminoethylsulfoneamide isoquinoline, O=S(=O)(NCCN*)c1cccc2cnccc12; S‑IQ = 5-mercaptoaminopropyl isoquinoline; hLeu = CC(C)CC[C@H](N)C(=O)O; GltNH2 = not defined here; Nle = CCCC[C@H](N)C(=O)O; Orn = NCCC[C@H](N)C(=O)O; bGaba = not defined here; Dab = NCC[C@H](N)C(=O)O; Nva = CCC[C@H](N)C(=O)O; Abu = CC[C@H](N)C(=O)O; Dap = NC[C@H](N)C(=O)O; Ph2 = not defined here; GlyNH2 = aminoglycine; Ava = NCCCCC(=O)O; βAla = NCCC(=O)O

target: protein kinase A, catalytic subunit; experiment: cell-based or functional assay

Q: RPR[Orn]E([bGaba-SO2‑IQ])SF (reading uncertain) [PTR 6088] was tested. Which “PKA IC50” value did it give?
A: Its value is 1000 nM.

Q: RPRTE(S‑IQ)SF [PTR 6104] was tested. Which “PKA IC50” value did it give?
A: Its value is 100 nM.

Q: For RPRTE([βAla-S‑IQ])SF [PTR 6102], which “PKA IC50” value is on record?
A: Its value is 100 nM.

Q: For RPRTE([Ava-SO2‑IQ])SF [PTR 6090], which “PKA IC50” value is on record?
A: The value was 600 nM.

Q: With RPR[Nle]E(SO2‑IQ)SF [PTR 6128] as the binder, how does the “PKA IC50” value read?
A: Its value is 100 nM.

Q: For RPRTD(SO2‑IQ)SF [PTR 6130], which “PKA IC50” value is on record?
A: Its value is 53 nM.

Q: For RPR[Nle]E([βAla-SO2‑IQ])S[Nle] [PTR 6096], which “PKA IC50” value is on record?
A: The value was 200 nM.

Q: With RPR[Orn]E(SO2‑IQ)SF [PTR 6132] as the binder, how does the “PKA IC50” value read?
A: The value was 12 nM.

Q: Which “PKA IC50” value does the source give for RPR[Nva]E([βAla-SO2‑IQ])A[hLeu] [PTR 6152] here?
A: The value was 5000 nM.

Q: How did the “PKA IC50” value turn out when RPRTE(SO2‑IQ)SF [PTR 6016] was run?
A: Its value is 100 nM.

Q: Which “PKA IC50” value does the source give for RPR[Nle]E([βAla-SO2‑IQ])[Dab]F [PTR 6140] here?
A: The value was 195 nM.

Q: How did the “PKA IC50” value turn out when RPR[Nle]E([βAla-SO2‑IQ])SF [PTR 6086] was run?
A: The value was 500 nM.

Q: How did the “PKA IC50” value turn out when RPRTE([βAla-SO2‑IQ])SF [PTR 6082] was run?
A: Its value is 200 nM.

target: protein kinase A, catalytic subunit; experiment: cell-based or functional assay; remark: another data set of the same source

Q: For RPRTS[GlyNH2]F [60005-5], which “IC50 µM PKA” value is on record?
A: The value was 7.5 µM.

Q: With RPR[Nva][GlyNH2]A[hLeu] [60006-5A] as the binder, how does the “IC50 µM PKA” value read?
A: The value was 139 µM.

Q: RPRTS[Abu][hLeu] [TY 60002-73] was tested. Which “IC50 µM PKA” value did it give?
A: The value was 228 µM.

target: protein kinase A, catalytic subunit; experiment: cell-based or functional assay; remark: another data set of the same source

Q: With RPRTE(S‑IQ)SF [PTR 6104] as the binder, how does the “IC50 PKA” value read?
A: Its value is 100 nM.

Q: Which “IC50 PKA” value does the source give for RPRTE([βAla-S‑IQ])SF [PTR 6102] here?
A: The value was 100 nM.

Q: Which “IC50 PKA” value does the source give for RPR[Orn]E(SO2‑IQ)SF [PTR 6132] here?
A: Its value is 12 nM.

target: protein kinase A, catalytic subunit; experiment: cell-based or functional assay; remark: another data set of the same source

Q: With RPR[Nva][GlyNH2][Dap][Ph2] (reading uncertain) [60006-11B] as the binder, how does the “% Inhibition PKA” value read?
A: Its value is 20%.

Q: With RPR[Nva][GlyNH2][Abu][hLeu] [60006-7B] as the binder, how does the “% Inhibition PKA” value read?
A: Its value is 24%.

Q: Which “% Inhibition PKA” value does the source give for RPR[Nva][GlyNH2][GltNH2][hLeu] (reading uncertain) [60006-16A] here?
A: The value was 21%.

Q: For RPRTS[GlyNH2]F [60005-5], which “% Inhibition PKA” value is on record?
A: The value was 40%.

Q: For RPRTSA[hLeu] [TY 60002-50], which “% Inhibition PKA” value is on record?
A: Its value is 2%.

Q: With RPR[Nva][GlyNH2]A[hLeu] [60006-5A] as the binder, how does the “% Inhibition PKA” value read?
A: Its value is 10%.

Q: RPRTS[Abu][hLeu] [TY 60002-73] was tested. Which “% Inhibition PKA” value did it give?
A: The value was 8%.

target: protein kinase A, catalytic subunit; experiment: cell-based or functional assay; remark: another data set of the same source

Q: Which “Activity PKA” value does the source give for RPRVS[Abu]F [TY 60002-61] here?
A: The value was greater than 40 µM.

Q: RPRTSA[hLeu] [TY 60002-50] was tested. Which “Activity PKA” value did it give?
A: The value was greater than 40 µM.

Q: Which “Activity PKA” value does the source give for RPRTS[Dap][hLeu] [TY 60002-96] here?
A: The value was greater than 40 µM.

Q: Which “Activity PKA” value does the source give for RPRTS[Abu][hLeu] [TY 60002-73] here?
A: The value was greater than 40 µM.
